Patent US20260131011A1
No end group written: not given here.

Key:
[1] = target: RSVB18537
[2] = target: hPIVC243
[3] = target: RSVA2

Q: What does the source list for VALDPIDISIELNKAKSDLEESKEWIRRSNQKLDSI (also: conjugated to cholesterol) [HPIV3_3004 (native) HR2 ligand conjugated to cholesterol (Peptide Conjugate 12)]?
A: EC50 [1]: < 40 nM; EC50 [2]: > 5290 nM; EC50 [3]: 50 nM
